Experimental data from PMC5352868, “Physicochemical and Biological Characterization of the Proposed Biosimilar Tocilizumab” (BioMed Research International, 2017).

B1: HS628 (proposed biosimilar tocilizumab) (antibody, V domains shown)
VH: EVQLQESGPGLVRPSQTLSLTCTVSGYSITSDHAWSWVRQPPGRGLEWIGYISYSGITTYNPSLKSRVTMLRDTSKNQFSLRLSSVTAADTAVYYCARSLARTTAMDYWGQGSLVTVSS
VL: DIQMTQSPSSLSASVGDRVTITCRASQDISSYLNWYQQKPGKAPKLLTYYTSRLHSGVPSRFSGSGSGTDFTFTISSLQPEDIATYYCQQGNTLPYTFGQGTKVEIK
notes: found identical to the heavy chain of m1; found identical to the light chain of m1; IgG1; Four batches tested (20130901-20130904); source: Zhejiang Hisun Pharmaceutical; copies: 2 + 2
B2: Originator tocilizumab (Actemra) (antibody, V domains shown)
VH: B1 VH
VL: B1 VL
notes: Recombinant humanized IgG1; also called originator product; source: bought: Roche Pharma (Schweiz) Ltd. (manufactured by Chugai Pharma Manufacturing Co., Ltd.); copies: 2 + 2

Legend:
[1] = target: T1, soluble interleukin-6 receptor (sIL-6R) (Homo sapiens, UniProt P08887); experiment: cell-based or functional assay
T1 sequence (P08887 20-365): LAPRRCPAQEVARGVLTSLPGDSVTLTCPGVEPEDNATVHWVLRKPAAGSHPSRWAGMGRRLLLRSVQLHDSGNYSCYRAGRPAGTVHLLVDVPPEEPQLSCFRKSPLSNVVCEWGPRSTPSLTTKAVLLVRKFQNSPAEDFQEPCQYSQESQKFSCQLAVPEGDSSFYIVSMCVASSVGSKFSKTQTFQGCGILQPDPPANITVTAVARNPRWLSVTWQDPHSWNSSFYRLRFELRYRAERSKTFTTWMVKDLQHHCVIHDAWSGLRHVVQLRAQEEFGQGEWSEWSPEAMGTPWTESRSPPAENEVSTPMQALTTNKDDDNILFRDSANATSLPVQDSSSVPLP

[2] = target: T1, soluble interleukin-6 receptor (sIL-6R); experiment: SPR; Biacore X100 plus; anti-Fc antibody immobilised on CM5 chip (~2500 RU) captures the antibody sample (1.0 ug/mL, 10 uL/min, 60 s); IL-6R injected 150 to 4.7 ng/mL, 30 uL/min, 180 s, dissociation 500 s, HBS-EP+ buffer; minimum and maximum of four batches; conditions: both partners purified

Binder | DS-1 cell growth inhibition (CCK-8, 72 hrs, antibody 800 ug/mL to 12.21 ng/mL), relative potency (EC50) towards originator tocilizumab, batch 1 of 4; blocks IL-6 with IL-6R on the cells [1] | DS-1 cell growth inhibition (CCK-8, 72 hrs, antibody 800 ug/mL to 12.21 ng/mL), relative potency (EC50) towards originator tocilizumab, batch 2 of 4; blocks IL-6 with IL-6R on the cells [1] | DS-1 cell growth inhibition (CCK-8, 72 hrs, antibody 800 ug/mL to 12.21 ng/mL), relative potency (EC50) towards originator tocilizumab, batch 3 of 4; blocks IL-6 with IL-6R on the cells [1] | DS-1 cell growth inhibition (CCK-8, 72 hrs, antibody 800 ug/mL to 12.21 ng/mL), relative potency (EC50) towards originator tocilizumab, batch 4 of 4; blocks IL-6 with IL-6R on the cells [1] | Kd [2]
B1 | 98 % relative potency | 102 % relative potency | 94 % relative potency | 105 % relative potency | 0.92 to 1.17 nM
B2 | – | – | – | – | 1.08 to 1.78 nM
